Assay results: publication PMC4255305

Biological target: (R)-selective amine : pyruvate transaminase from Nectria haematococca, His-tagged (construct pQR1023) (Nectria haematococca)
Assay: SEC; Superdex 200 HiLoad 16/60 gel filtration, 50 mM Tris/HCl, 0.1 M NaCl pH 7.5, 1.0 mL/min; dimer from the elution volume

stoichiometry N: 2
Substance: (R)-selective amine : pyruvate transaminase from Nectria haematococca, His-tagged (construct pQR1023) (enzyme)
